Assay [1] addresses murine TpoR ectodomain, monomeric (TpoR_(1-479)) (mouse) (UniProt Q08351).
The target is the same in assay [2]. The assay is described as follows: SPR; high concentrations of the Tpo F162E mutant, up to 10 µM; which TpoR form and which partner was immobilised is not stated.
In assay [3] the target is T1, murine TpoR ectodomain, monomeric (TpoR_(1-479)) (mouse, UniProt Q08351 26-479, N-linked glycans at N117, N178, N349; tryptophan mannosylation (W465, W468)).
T1 chain: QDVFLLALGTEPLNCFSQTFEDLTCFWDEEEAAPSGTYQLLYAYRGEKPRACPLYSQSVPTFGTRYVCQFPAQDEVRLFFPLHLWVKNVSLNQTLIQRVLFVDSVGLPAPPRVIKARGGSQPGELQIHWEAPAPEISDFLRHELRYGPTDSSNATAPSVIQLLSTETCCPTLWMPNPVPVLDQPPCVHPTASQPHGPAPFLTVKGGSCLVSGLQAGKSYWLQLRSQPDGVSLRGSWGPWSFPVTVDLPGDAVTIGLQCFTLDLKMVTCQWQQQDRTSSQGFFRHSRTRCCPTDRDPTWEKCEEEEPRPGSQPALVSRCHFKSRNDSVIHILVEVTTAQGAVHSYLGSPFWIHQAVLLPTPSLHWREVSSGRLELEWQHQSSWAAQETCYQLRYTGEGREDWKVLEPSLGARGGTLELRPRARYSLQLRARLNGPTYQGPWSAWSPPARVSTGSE
In words: SPR; TpoR over immobilised romiplostim peptide.

For assay [4], the target named is T1, murine TpoR ectodomain, monomeric …. The assay is described as follows: SPR; TpoR over immobilised romiplostim peptide.
Assay [5] deals with T2, murine TpoR ectodomain, monomeric (TpoR_(1-479)) (mouse, UniProt Q08351 26-479, N-linked glycans at N117, N178, N349; tryptophan mannosylation (W465, W468)).
T2 construct: signal peptide in the construct; Thrombopoietin receptor (c-Mpl), mouse, residues 1-479, followed by a TEV cleavage site and the Fc domain of hIgG1; Eluted from Protein G resin by TEV cleavage; residues of the TEV site may remain at the C-terminus; also called murine TpoR (monomeric); source: Expi293F cells, transiently transfected, secreted; purified (Protein G Sepharose, TEV elution, Superdex …)
T2 sequence (looked up): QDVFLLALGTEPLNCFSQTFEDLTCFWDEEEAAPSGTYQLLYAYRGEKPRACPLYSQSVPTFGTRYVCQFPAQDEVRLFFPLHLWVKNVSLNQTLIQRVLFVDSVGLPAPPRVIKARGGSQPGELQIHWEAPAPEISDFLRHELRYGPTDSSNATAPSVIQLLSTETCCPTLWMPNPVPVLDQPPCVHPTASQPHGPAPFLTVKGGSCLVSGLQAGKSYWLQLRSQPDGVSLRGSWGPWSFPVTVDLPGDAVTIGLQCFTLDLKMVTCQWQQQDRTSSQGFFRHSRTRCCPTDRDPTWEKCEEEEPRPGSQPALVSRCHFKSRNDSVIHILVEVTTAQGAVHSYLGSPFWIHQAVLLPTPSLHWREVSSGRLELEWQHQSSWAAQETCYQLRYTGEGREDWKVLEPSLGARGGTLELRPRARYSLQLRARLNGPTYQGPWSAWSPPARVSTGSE
The assay is described as follows: SPR; TpoR (monomeric, dimeric or mutants) as analyte over N-terminally biotinylated romiplostim peptides on streptavidin chips; HBS-EP; two-fold dilution series, highest 100 nM. The note with it: both partners purified.

No end group written: not given here. *: point of attachment. Biotin = O=C1N[C@H]2[C@H](CS[C@H]2CCCCC(=O)*)N1

Turning to “murine Tpo D29Y (site II mutant) (from UniProt P40226 22-356) (ligand)”, the ability to induce differentiation of M1(TpoR) cells, fold decrease relative to the WT in assay [1] was determined as 100 fold.
Regarding “murine Tpo D29E (site II mutant) (from UniProt P40226 22-356) (ligand)”, the ability to induce differentiation of M1(TpoR) cells, fold decrease relative to the WT in assay [1] came to 100 fold.
For the molecule “murine Tpo F162E (site I mutant) (from UniProt P40226 22-356) (ligand)”, the equilibrium dissociation constant (Kd) in assay [2] was over 10000 nM.

B1: peptide version of romiplostim (two copies of IEGPTLRQWLAARA connected by a GG linker) (peptide)
peptide: Biotin-IEGPTLRQWLAARAGGIEGPTLRQWLAARA
notes: two copies of the TpoR agonist peptide joined by GG; Not the Fc fusion drug itself; The biotin is stated for the peptides coupled to streptavidin chips; also called romiplostim peptide; dimeric romiplostim peptide; source: synthetic peptide
With B1, in assay [3], binding was put at a Kd of 71 nM. Further, the koff in assay [4] was found to be 0.017 s⁻¹. For the same molecule, the binding result in assay [5] is reported as “binds”.

B2: monomeric version of the romiplostim peptide (peptide)
peptide: Biotin-IEGPTLRQWLAARA
notes: TpoR agonist peptide motif of romiplostim; also called monomeric-romiplostim; monomeric version of the peptide; source: synthetic peptide
Consider B2, for which the binding result in assay [5] is on record as “binds”.

For the origin of these results see PMC10850085 (Nature Communications, 2024).
